Measurements published in patent publication US20230212285A1.
Where a chain is given by its changes, count along the chain named.

B1: E-C2 (antibody, human IgG1, V domains shown)
VH: QVQLVQSGAEVKKPGASVKVSCKASGYTFTDYYMNWVRQAPGQGLEWMGRIYPGSGNTYYAQKFQGRVTMTRDTSTSTVYMELSSLRSEDTAVYYCARGVYYLDYWGQGTLVTVSS
VL: DIQMTQSPSSLSASVGDRVTITCRASQGIRTNVAWLQQKPGKAPKSLIYSASYRQSGVPSRFSGSGSGTDFTLTISSLQPEDFATYYCQQYNSYPRTFGGGTKVEIK
B2: MH1 IgG1 (antibody, V domains shown)
VH: B1 VH with L103Y
VL: B1 VL with V33L, L36F, S50A, Y53S, R54L

Biological target: human C-KIT-Fc protein (human) (UniProt P10721)
Assay: direct ELISA, IgG at 1 µg/ml

Binder | OD450 nm
B1 | > 1.8 OD450 nm
B2 | > 1.8 OD450 nm
